Results on five molecules are retold here after patent publication US7115711 (GENERAL HOSPITAL, dated 2006).

T1: B42-RIP110 (mouse, UniProt Q5U5Q9 20-727)
T1 construct: Clone from a mouse liver cDNA library fused to B42; also called B42-110; B42 fusion 110
T1 sequence: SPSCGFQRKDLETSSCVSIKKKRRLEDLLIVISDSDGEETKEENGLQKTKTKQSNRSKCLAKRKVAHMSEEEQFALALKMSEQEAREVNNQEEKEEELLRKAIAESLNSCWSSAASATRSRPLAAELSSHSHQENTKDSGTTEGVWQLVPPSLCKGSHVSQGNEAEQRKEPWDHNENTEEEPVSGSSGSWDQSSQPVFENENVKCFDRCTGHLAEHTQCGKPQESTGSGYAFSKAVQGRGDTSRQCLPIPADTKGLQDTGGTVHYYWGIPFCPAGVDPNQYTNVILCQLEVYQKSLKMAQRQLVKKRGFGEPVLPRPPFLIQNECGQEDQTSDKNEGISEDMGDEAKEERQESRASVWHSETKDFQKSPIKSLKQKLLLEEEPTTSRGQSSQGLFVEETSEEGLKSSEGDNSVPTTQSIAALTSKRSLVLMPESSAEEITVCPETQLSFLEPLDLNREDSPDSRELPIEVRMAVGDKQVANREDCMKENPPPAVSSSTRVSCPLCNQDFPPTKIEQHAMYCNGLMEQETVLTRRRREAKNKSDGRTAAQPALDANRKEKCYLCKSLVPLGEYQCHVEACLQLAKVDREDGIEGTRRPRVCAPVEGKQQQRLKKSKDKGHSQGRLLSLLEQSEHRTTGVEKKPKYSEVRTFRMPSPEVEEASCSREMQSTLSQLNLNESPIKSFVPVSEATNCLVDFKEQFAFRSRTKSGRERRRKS

T2: LexA-TR (bacterial; rat, UniProt P0A7C2 1-202; P18113 170-461, limits assumed)
T2 construct: also called Lex fusion TR
T2 sequence (looked up): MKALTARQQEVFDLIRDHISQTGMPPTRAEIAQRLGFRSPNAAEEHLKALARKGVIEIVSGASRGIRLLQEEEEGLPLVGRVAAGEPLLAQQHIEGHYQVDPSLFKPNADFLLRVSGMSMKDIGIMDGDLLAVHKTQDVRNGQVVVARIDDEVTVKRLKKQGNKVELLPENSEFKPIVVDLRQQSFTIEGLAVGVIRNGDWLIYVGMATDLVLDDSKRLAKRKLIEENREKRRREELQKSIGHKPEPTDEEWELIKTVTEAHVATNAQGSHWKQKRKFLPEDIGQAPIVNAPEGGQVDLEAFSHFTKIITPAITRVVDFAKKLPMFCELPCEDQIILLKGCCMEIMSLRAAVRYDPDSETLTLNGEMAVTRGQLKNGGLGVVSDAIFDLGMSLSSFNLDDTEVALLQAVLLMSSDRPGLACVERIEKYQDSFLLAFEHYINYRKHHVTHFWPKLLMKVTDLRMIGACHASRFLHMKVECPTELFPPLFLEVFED

B1: B42-RIP13 (other, not shown: large carriers)
chain: DALAALVDAAASAPQMDVSKTKESKHEAARLEENLRSRSAAVSEQQQLEQKNLEVEKRSVQCVCTSSALPSGKAQPHASVVYSEAGKDKGPPPKSRYEEELRTRGKTTITAANFIDVTITRQIASDKDARERGSQSSDSSSSLSSHRYETASDAIEVISPASSPAPPQEKPQAYQPDMVKANQAENESTRQYEGPLHHYRSQQESPSPQQQPPLPPSSQSEGMGQVPRTHRLITLADHICQIITQDFARNQVPSQPSTSTFQTSPSALSSTPVRTKTSSRYSPESQSQTVLHPRPGPRVSPENLVDKSRGSRPGKSPERSHIPSEPYEPISPPQGPAVHEKQDSMLLLSQRGVDPAEQRSDSRSPGSISYLPSFFTKLESTSPMVKSKKQEIFRKLNSSGGGDSDMAAAQPGTEIFNLPAVTTSGAVSSRSHSFADPASNLGLEDIIRKALMGSFDDKVEDHGVVMSHPVGIMPGSASTSVVTSSEARRDEGEPSPHAGVCKPKLINKSNSRKSKSPIPGQSYLGTERPSSVSSVHSEGDYHRQTPGWAWEDRPSSTGSTQFPYNPLTIRMLSSTPPTQIACAPSAITQAAPHQQNRIWEREPAPLLSAQYETLSDSDD
B2: LexA-RXR (other, bacterial;human, UniProt P0A7C2 1-202, looked up)
chain: MKALTARQQEVFDLIRDHISQTGMPPTRAEIAQRLGFRSPNAAEEHLKALARKGVIEIVSGASRGIRLLQEEEEGLPLVGRVAAGEPLLAQQHIEGHYQVDPSLFKPNADFLLRVSGMSMKDIGIMDGDLLAVHKTQDVRNGQVVVARIDDEVTVKRLKKQGNKVELLPENSEFKPIVVDLRQQSFTIEGLAVGVIRNGDWLLAMGMKREAVQEERQRGKDRNENEVESTSSANEDMPVERILEAELAVEPKTETYVEANMGLNPSSPNDPVTNICQAADKQLFTLVEWAKRIPHFSELPLDDQVILLRAGWNELLIASFSHRSIAVKDGILLATGLHVHRNSAHSAGVGAIFDRVLTELVSKMRDMQMDKTELGCLRAIVLFNPDSKGLSNPAEVEALREKVYASLEAYCKHKYPEQPGRFAKLLLRLPALRSIGLKCLEHLFFFKLIGDTPIDTFLMEMLEAPHQMT
notes: also called Lex fusion RXR
B3: B42-PPAR clone starting at amino acid 91 (other, mouse, UniProt P23204 91-468, looked up, not shown: large carriers)
chain: DESPGSALNIECRICGDKASGYHYGVHACEGCKGFFRRTIRLKLVYDKCDRSCKIQKKNRNKCQYCRFHKCLSVGMSHNAIRFGRMPRSEKAKLKAEILTCEHDLKDSETADLKSLGKRIHEAYLKNFNMNKVKARVILAGKTSNNPPFVIHDMETLCMAEKTLVAKMVANGVEDKEAEVRFFHCCQCMSVETVTELTEFAKAIPGFANLDLNDQVTLLKYGVYEAIFTMLSSLMNKDGMLIAYGNGFITREFLKNLRKPFCDIMEPKFDFAMKFNALELDDSDISLFVAAIICCGDRPGLLNIGYIEKLQEGIVHVLKLHLQSNHPDDTFLFPKLLQKMVDLRQLVTEHAQLVQVIKKTESDAALHPLLQEIYRDMY
notes: range 91-C-terminus; Only the start is stated; also called PPAR (four clones)
B4: B42-PPAR (plasmid isolated from the screening, as used in Table 1) (other, mouse, UniProt P23204 91-468, looked up, not shown: large carriers)
chain: B3 chain
notes: 'For B42-PPAR, the plasmid isolated from the screening was used'; also called B42 fusion PPAR
B5: B42-PPAR clone starting at amino acid 84 (other, mouse, UniProt P23204 84-468, looked up, not shown: large carriers)
chain: PVIPASTDESPGSALNIECRICGDKASGYHYGVHACEGCKGFFRRTIRLKLVYDKCDRSCKIQKKNRNKCQYCRFHKCLSVGMSHNAIRFGRMPRSEKAKLKAEILTCEHDLKDSETADLKSLGKRIHEAYLKNFNMNKVKARVILAGKTSNNPPFVIHDMETLCMAEKTLVAKMVANGVEDKEAEVRFFHCCQCMSVETVTELTEFAKAIPGFANLDLNDQVTLLKYGVYEAIFTMLSSLMNKDGMLIAYGNGFITREFLKNLRKPFCDIMEPKFDFAMKFNALELDDSDISLFVAAIICCGDRPGLLNIGYIEKLQEGIVHVLKLHLQSNHPDDTFLFPKLLQKMVDLRQLVTEHAQLVQVIKKTESDAALHPLLQEIYRDMY
notes: range 84-C-terminus; Only the start is stated; also called PPAR (three clones)

The target of assay [1] is B2. As to the kind of experiment: cell-based or functional assay.
The next assay concerns the target T1, B42-RIP110. Description: yeast interaction trap, X-gal plate, with 9-cis-RA; B = blue (strong interaction). Here is the method:
(§1) Interactions of the RIP clones with other superfamily members, including RAR, TR, the glucocorticoid receptor (GR), and MB67, an orphan isolated in this lab (Baes et al., Mol. Cell. Biol. 14:1544–1552, 1994) were also tested using a series of appropriate LexA fusions. In particular, the experiments shown in Table 1 were carried out as follows. Yeast transformants containing a lacZ reporter gene under the control of LexA binding sites and the indicated B42- and Lex-fusion protein expression vectors were transferred onto galactose-Ura⁻His⁻Trp⁻ plates containing X-gal and incubated for two days. Relative levels of β-galactosidase activity were estimated and are depicted as follows: B, blue (strong interaction); LB, light blue (weak interaction); W, white (no interaction); nt, not tested. At least three separate colonies were tested on the same plate for interaction. To test the effects of ligands, 100 µl of a 10^-6M solution of the appropriate ligand was spread onto plates just before inoculation of cells (9-cis-RA for RXR, T3 for TR, and all-trans-RA for RAR). For B42-PPAR, the plasmid isolated from the screening was used. Both full length and truncated RAR fusions to LexA were tested with identical results for all the B42 fusions except B42-110, which was tested only with the full length fusion.

The assay “B42-RIP13” has as its target B1. Described as above. The procedure:
as §1

Assay [2] deals with B2. Description: yeast interaction trap screen; clones showing specific interaction with LexA-RXR; four clones starting at amino acid 91. The procedure: (§2) From 3×10^6 primary yeast transformants, a number of β-gal expressing colonies were identified in two independent screens carried out in the presence or absence of 9-cis-RA. Since expression of the B42-cDNA fusion proteins was induced by growth on galactose, candidates obtained from each condition were tested for galactose-dependent expression of both β-gal and LEU2, in the presence or absence of 9-cis-RA, using appropriate indicator plates (see below).
(§3) Candidates showing specific interaction with LexA-RXR were sequenced across the B42 fusion junction using an appropriate vector primer, and additional sequence was determined. The deduced amino acid sequences were compared to those in the GenBank and EMBL databases using the GCG (Devereux et al., Nucleic Acids Res. 12:387–395, 1984) and BLAST programs (Altschul et al., J. Mol. Biol. 215:403–410, 1990). […] All of these clones included intact ligand binding domains, as expected from the fact that the major heterodimerization function lies within that domain. For PPAR (Issemann et al., Nature 347:645–650, 1990), three clones started at amino acid 84, just N-terminal to the DNA binding (C) domain, four others started at 91, within the C domain, and one at 170, just past the C domain. For RAR (Leroy et al., EMBO J. 10:59–69), all six clones started at amino acid 132, within the C domain.

Another assay addresses T2, LexA-TR. As to the kind of experiment: yeast interaction trap, X-gal plate, with T3; W = white (no interaction). The procedure: as §1
Assay [3] addresses B2. Description: yeast interaction trap screen; clones showing specific interaction with LexA-RXR; three clones starting at amino acid 84. Here is the method: as §2, §3

As to B1, in the assay with LexA-RXR [1], the “β-gal expression (lacZ reporter under LexA binding sites, yeast liquid culture)” value is about 3 fold.

B2: the binding result with B42-RIP110 and with B42-RIP13 was “binds” throughout.

With B3, in the assay with LexA-RXR [2], the binding result is given as “binds”.

B4: the binding result with LexA-TR is listed as “no binding”.

For the molecule B5, the binding result with LexA-RXR [3] is reported as “binds”.
